# Results from US9957295B2, “Peptides inhibiting cold-inducible RNA binding protein activity” (The Feinstein Institute for Medical Research, priority 2013, dated 2018).
# B1: rmCIRP: recombinant murine (rat sequence) His-tagged CIRP expressed in E. coli (protein)
# chain: MASDEGKLFVGGLSFDTNEQALEQVFSKYGQISEVVVVKDRETQRSRGFGFVTFENIDDAKDAMMAMNGKSVDGRQIRVDQAGKSSDNRSRGYRGGSAGGRGFFRGGRSRGRGFSRGGGDRGYGGGRFESRSGGYGGSRDYYASRSQGGSYGYRSSGGSYRDSYDSYATHNEHHHHHH
# Tests used:
# RAW 264.7 cells = assay: Cytokine release from RAW 264.7 cells stimulated with recombinant CIRP; assay type: cell-based, murine; details: for TNF-α release from RAW 264.7 cells (in words): 100 ng/ml, 4 h, or indicated concentrations and times
# Protocol: Murine macrophage-like RAW 264.7 cells were obtained from ATCC (American Type Culture Collection, Manassas, Va.), and were grown in Dulbecco's Modified Eagle's Medium (DMEM, Life Technologies, Grand Island, N.Y.) containing 10% (vol/vol) FBS (heat-inactivated at 56° C. for 30 min), 100 U/ml penicillin, 100 μg/ml streptomycin and 2 mM glutamine. Cells were re-suspended in medium and incubated in 6 or 48-well tissue-culture plates overnight in a humidified incubator (37° C., 5% CO2). In the experiments, cell monolayers were stimulated with or without recombinant CIRP at various indicated concentrations and for various indicated times. The cell-free supernatants were assayed for TNF-α by ELISA or for HMGB1 by western blot analysis.
# As an index of the inflammatory cytokine cascade and the acute inflammatory response, supernatants from cells incubated with recombinant CIRP were measured for TNF-α and IL-6 levels in serum, tissue homogenates, and culture medium grown with macrophages using a commercially available enzyme-linked immunosorbent assay (ELISA) kits (BioSource International, Camarillo, Calif.) according to the manufacturer's instruction. To quantify TNF-α and IL-6 protein levels in serum and tissue, serum samples were harvested 4 h after hemorrhage, or 4 h after treatment with recombinant CIRP from animals by cardiac puncture at the time that the rats were sacrificed, and collected tissue samples, and carried out by the same method as above. HMGB1 levels were determined by Western blotting.
# To address whether the extracellular CIRP could function as an inflammatory mediator, recombinant murine CIRP (rmCIRP) was expressed and purified using a bacterial expression system with more than 97% purity and confirmation by Western blotting (FIGS. 16A and B). […] J. Immunol. 174, 3306-3316 (2005); Henderson, B., et al. The extracellular signaling actions of molecular chaperones are not due to microbial contaminants. Cell Stress Chaperones 15, 123-141 (2010)). […]
# In parallel experiments, cytokines in the supernatant of cultured RAW cells incubated with rCIRP were measured. […]
# THP-1 cells = assay: TNF-α release from differentiated THP-1 cells stimulated with recombinant proteins; assay type: cell-based, human; details: 0.3 μg/ml each protein, 8 h, ELISA
# Protocol: As with the murine model, the stimulation of TNF-α, release by rCIRP in a human model was studied. […] These experiments were conducted by incubating differentiated human THP-1 cells with rhCIRP or rmCIRP at the indicated concentrations for 4 h. *P<0.05 vs. no CIRP. Similarly, human PBMC were incubated with the indicated concentrations of rhCIRP for 8 h. *P<0.05 vs. no rhCIRP. Thus, stimulation of cytokine release by CIRP was not attributable to LPS contamination. Furthermore, CIRP-induced cytokine activation was conserved between rodents and humans.
# rmCIRP induced TNF-α and HMGB1 release in macrophages (FIGS. 10a, b and c). It was reported that HMGB1 can also stimulate TNF-α release (Andersson, U., et al. High mobility group 1 protein (HMG-1) stimulates proinflammatory cytokine synthesis in human monocytes. J. Exp. Med. 192, 565-570 (2000)). The relationship between CIRP and HMGB1 on stimulating TNF-α release was analyzed by applying respective neutralizing antibodies. […] After 4 h, TNF-α levels in conditioned medium (CM) were assayed by ELISA. Data are mean±s.e.m. from three independent experiments. *P<0.05 vs. rmCIRP+ control IgG. In FIG. 16D, RAW 264.7 cells were pre-incubated with rabbit control IgG or anti-CIRP antibodies at indicated dilutions of 1 mg/ml for 20 min before adding 1.0 μg/ml rmCIRP. After 4 h, TNF-α levels in CM were assayed by ELISA. Data are mean±s.e.m. from three independent experiments. *P<0.05 vs. rmCIRP+ control IgG. THP-1 cells were incubated with 4 μg/ml of anti-CIRP antibodies, anti-HMGB1 antibodies, or non-immunized control IgG for 1 h prior to adding rmCIRP (0.3 μg/ml), rmHMGB1 (0.3 μg/ml), or rmCIRP/rmHMGB1 (0.3 μg/ml, 0.3 μg/ml) for 8 h. *P<0.05 vs. rmCIRP; #P<0.05 vs. rmHMGB1. […] Furthermore, rmCIRP, rmHMGB1, and rmCIRP plus rmHMGB1 induced TNF-α levels of 0.8, 0.6, and 1.6 ng/ml, respectively. […] TNF-α levels in all collected CM were assayed by ELISA. Data are mean±s.e.m. from three or four independent experiments.
# Murine macrophage-like RAW 264.7 cells and human monocyte THP-1 cells were obtained from ATCC (Manassas, Va.). […]
molecule,measurement,setting,value
B1,TNF-α release from RAW 264.7 cells (in words),RAW 264.7 cells,increased TNF-α release in a dose- and time-dependent manner
same,TNF-α release from RAW 264.7 cells (in words),RAW 264.7 cells; listed as rCIRP,significantly increased TNF-α release
same,increase of HMGB1 release from cultured RAW cells,"RAW 264.7 cells; 500 ng/ml, 20 h incubation, Western blot",about 6 fold
same,induced TNF-α levels,THP-1 cells,0.8 ng/mL
